Measured values reported in patent US20070178464A1.

Molecular target: Probe II: N-terminal domains of Rluc and DnaE with nuclear localization signal (expressed from pcRDn-NLS) (Renilla; blue-green algae, PCC6803 strain) (UniProt P27652)
Test: cell-based or functional assay

Probe II: N-terminal domains of Rluc and DnaE with nuclear localization signal (expressed from pcRDn-NLS) (Renilla; blue-green algae, PCC6803 strain), sequence (P27652 whole entry, the tested form may be a part): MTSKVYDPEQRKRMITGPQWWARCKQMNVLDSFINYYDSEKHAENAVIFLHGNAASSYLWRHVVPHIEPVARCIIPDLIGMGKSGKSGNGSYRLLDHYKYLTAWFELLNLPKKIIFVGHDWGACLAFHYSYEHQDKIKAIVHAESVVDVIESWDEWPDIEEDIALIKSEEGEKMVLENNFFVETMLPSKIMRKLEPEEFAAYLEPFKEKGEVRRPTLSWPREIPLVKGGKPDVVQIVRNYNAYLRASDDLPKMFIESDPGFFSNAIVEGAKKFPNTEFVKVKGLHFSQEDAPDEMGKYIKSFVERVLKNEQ

- luminescence intensity (cooled CCD image of mice implanted with transfected COS-7 cells): 20 times
Substance: Probe I: AR connected to the C-terminal domains of RLuc and DnaE (expressed from pcDRc-AR) (from UniProt P27652 230-311; P10275 1-918)
